The values below come from PMC6141588, “Electron microscopy of Chaetomium pom152 shows the assembly of ten-bead string” (Cell Discovery, 2018).

The series deals with the molecule itself. Put plainly: cryo-EM micrographs of single particles; purified Ctpom152^FL, much of the detergent removed before rapid freezing; longer strings in up to an estimated 10% of over 2000 images.

B1: full-length pom152 of Chaetomium thermophilum (Ctpom152^FL) (natural protein, UniProt G0SB44 1-1270, looked up)
chain: MSDAPAVGAFPQTPVAARRGPARPSDSTTSTTIKRTSPLPLAPQAGRQATNISPVIPLHILDAPTQRFYAFAFYLALTAWKLYDWTQVLEEDTESFLLFLKWIAIDCVFLFGLPELRIPWLELSQPFVMVAFAIHAMFDWILMFNIGFPWQSWVIGLLKVFYDREIAISEHNVKLSSILQNSSLIMGRQIINILPEGSAILNPELQPFCLGGDRKTANIPIFFNSTIPVEVELIRTDFETGQQESIKLSKSQLRDIERRAKRESQDGDTVQSIVQFDFPVKKTGAYRLGRVLDEYKLEVQRRNPLTFVVSCPKAWVGPALSAHRCVGDLSDLSMMVEGTPPLKIKYSRMINGKDHSFHFQSLQPEGFVSPLSGLRSNNWGYDEDDISWARAQKVPVGLNESMHSSGDWQYSIDEVQDGFGNIIKYDSLADDPDGKPKPKHLTQSFVVKKRPVIRLEGCDLRHPLKVAKGKSKNLPVSYGLSGGSREDSTYQIAWQFSPIDTLTESGDHGDVVTIGTYTAKNNRDRPTISAPGLYTLKSVSASQCEGEIQEPSSCLLLNPLEPRLSLRHEEIPDTCAGNSIGLRVDLDLIGTPPFIVRYDVISNGERRSERVSIPGLRYQLDLVPRIAGHHKYIFTHVGDSIYDGQKLSGPEYVLEQDVKPAAAALIQHSTGKMSSCLGDQVTVDILLLGDPPFTLEWELIHDGKRKQFKVPNIQENSYQIKTAPLTTGGEYTLGLTSVQDKRGCRNFLQEELKISVRRQSPRAAFGQVDGKRKILAVEGSSVKLPLRLTGEGPWKVYYANLHDGSPDKPKVQEKIIKSDNGFLEVRGRGAFAITDVWDSQCHGVVDPKASRFDVDWFPRPELSVALTHGVSKTETGFQLQDVCEGDVSGFEVALKGTPPFTVEYEVRHHPLQGSSSLSKKKIEGVVGKEAIQADTSKAGTYTYKFTALEDDLYSSNRGFQPIIVKQNVNRKPTASFVKPGQTFKYCKSEQDNEDGIPITLTGVPPFFLEVEIKHQSAAVPEIYRTPAIDSHSYELKIPRHHLRLGTQHIRIRDIRDGSGCHSTSGILSGPSVQVQLFEAPTIYPLETRTDYCVGERISYTLSGQAPFEVWYTFNGVELKAKSPNTNFRRIAESPGEFTITSVSDKASECRAPVSITKTIHPLPAVRISKGKSVRVDIHEGGEVDILFEFFGTPPFEFTYTRSTNARKGQKSQVLETRHDISHEHSKVIKASQEGTYEVVAIKDKYCSFSTQAVVGLEGGKKDKTKKLKVY
notes: also called FL Ctpom152; full-length Ctpom152; source: insect cells, purified with detergent extract; much of the detergent removed before cryo-EM
For the protein B1, the binding result is recorded as “binds”.
